Assay results: the supplement of paper PMC7877785
± gives the uncertainty stated by the source.

Assay: self-splicing fitness, log relative to wild type (ln ratio); higher = more splicing; Tetrahymena group I intron in knt gene, E. coli kanamycin selection, DiMSum; sequences stand for … in CUCUCU…GGAGGGAAAAGUUAUCAGGCAUGCACCUGGUAGCUAGUCUUUAAACCAAUAGAUUGCAUCGGUUUAAAAGGCAAGACCGUCAAAUUGCGGGAAAGGGGUCAACAGCCGUUCAGUACCAAGUCUCAGGGGAAACUUUGAGAUGGCCUUGCAAAGGGUAUGGUAAUAAGCUGACGGACAUGGUCCUAACCACGCAGCCAAGUCCUAAGUCAACAGAUCUUCUGUUGAUAUGGAUGCAGUUCACAGACUAAAUGUCGGUCGGGGAAGAUGUAUUCUUCUCAUAAGAUAUAGUCGGACCUCUCCUUAAUGGGAGCUAGCGGAUGAAGUGAUGCAACACUGGAGCCGCUGGGAACUAAUUUGUAUGCGAAAGUAUAUUGAUUAGUUUUGGAGUACUCGUGGUCG
Method in brief: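 Pooled colonies went to amplicon sequencing on an Illumina HiSeq 2500 after six replicate transformations. The plates were LB agar with 100 μg/mL carbenicillin, 50 μM IPTG and 0.2% rhamnose, with or without 25 μg/mL kanamycin, incubated overnight at 37°C or 30°C. The E. coli BL21(DE3) library had all eight P1ex-region intron nucleotides randomised, the intron placed in the knt kanamycin-resistance gene on pET-22b(+). DiMSum fitness is the error-weighted combination of replicate fold changes, kanamycin against none, normalised to wild type.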

Row | Sequence | self-splicing fitness (ln) (30 °C) | self-splicing fitness (ln) (37 °C)
1 | CUUCAGCAAUAUUACGAAAG | -2.44 ± 0.077 | -1.55 ± 0.12
2 | AGUUAGCAAUAUUACGUCUA | -0.594 ± 0.12 | -0.0617 ± 0.1
3 | GGAGAGCAAUAUUACGCGGU | -3.77 ± 0.47 | 
4 | CACAAGCAAUAUUACGCUGC | -5.23 ± 0.32 | -2.87 ± 0.21
5 | GUUCAGCAAUAUUACGUCAA | -1.86 ± 0.14 | -0.976 ± 0.14
6 | CUUGAGCAAUAUUACGAACU | -4.03 ± 0.46 | -2.09 ± 0.32
7 | UUUAAGCAAUAUUACGAUAA | -0.773 ± 0.1 | 0.228 ± 0.13
8 | GGAAAGCAAUAUUACGAUGC | -0.209 ± 0.087 | -0.26 ± 0.12
9 | GCCCAGCAAUAUUACGGUUG | -2.99 ± 0.12 | -1.95 ± 0.11
10 | UAUGAGCAAUAUUACGCAUG | -2.53 ± 0.11 | -1.76 ± 0.15
11 | GGAAAGCAAUAUUACGGUCU | -2.31 ± 0.12 | -1.17 ± 0.15
12 | AUCUAGCAAUAUUACGCAGG | -2.97 ± 0.3 | -1.07 ± 0.18
13 | GAAAAGCAAUAUUACGCCCA | -0.288 ± 0.11 | -0.385 ± 0.19
14 | GCCGAGCAAUAUUACGCUAC | -3.91 ± 0.31 | -4.08 ± 0.47
15 | GAAGAGCAAUAUUACGACUG | -3.86 ± 0.39 | -1.88 ± 0.16
16 | GCCUAGCAAUAUUACGUUCA | -1.37 ± 0.16 | -1.12 ± 0.17
17 | CGUAAGCAAUAUUACGCUGU | -2.93 ± 0.16 | -2.17 ± 0.21
18 | CACGAGCAAUAUUACGGAUU | -3.86 ± 0.3 | -2.47 ± 0.26
19 | GUCAAGCAAUAUUACGCUGU | -3.26 ± 0.13 | -2.42 ± 0.19

Row | Sequence | self-splicing fitness (ln) (30 °C) | self-splicing fitness (ln) (37 °C)
20 | ACCAAGCAAUAUUACGGGCG | -0.824 ± 0.048 | 0.12 ± 0.068
21 | CCCCAGCAAUAUUACGGUGU | -3.26 ± 0.11 | -1.94 ± 0.1
22 | AGGGAGCAAUAUUACGUCAG |  | -2.97 ± 0.35
23 | CAGUAGCAAUAUUACGUACU | -1.78 ± 0.12 | -1.3 ± 0.1
24 | ACUUAGCAAUAUUACGCACU | -0.553 ± 0.093 | 0.532 ± 0.12
25 | UCGUAGCAAUAUUACGACAG |  | -1.5 ± 0.29
26 | UCGAAGCAAUAUUACGCUGC | -3.55 ± 0.43 | -1.49 ± 0.4
27 | UAACAGCAAUAUUACGCUUG | -0.975 ± 0.06 | -0.577 ± 0.082
28 | AUAUAGCAAUAUUACGCCAU | -1.32 ± 0.18 | -1.38 ± 0.21
29 | UGCAAGCAAUAUUACGGUCG | -0.179 ± 0.073 | 0.595 ± 0.088
30 | GCUUAGCAAUAUUACGUUCG | -0.857 ± 0.095 | -0.972 ± 0.11
31 | UAGUAGCAAUAUUACGCGGA | -3.56 ± 0.47 | -0.643 ± 0.17
32 | GUUCAGCAAUAUUACGUCGC | -0.991 ± 0.1 | -0.347 ± 0.12
33 | CAAUAGCAAUAUUACGGAGA | -2.75 ± 0.33 | -2.08 ± 0.43
34 | UUGAAGCAAUAUUACGUACC | -3.61 ± 0.41 | -1.07 ± 0.35
35 | ACUAAGCAAUAUUACGGAAA | -2.78 ± 0.37 | -1.7 ± 0.23
36 | CGAAAGCAAUAUUACGUUGC | -4.09 ± 0.17 | -3.23 ± 0.2
37 | AGACAGCAAUAUUACGCAAU | -2.41 ± 0.17 | -0.644 ± 0.11
38 | GACUAGCAAUAUUACGGGGU | -4.18 ± 0.17 | -2.91 ± 0.15
